In PMC10397247:
Values belong to the binder of their own block, whether it stands above or below them.

How the values were obtained:
4H918-bA = target: T1, 4H918-bA; assay: two-hybrid library CCNG1;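 note: natural log of median RNA to DNA barcode read ratio; higher means stronger binding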
T1 chain: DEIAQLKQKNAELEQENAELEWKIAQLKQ

4H968-bA = target: T2, 4H968-bA; assay: two-hybrid library CCNG1;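 note: natural log of median RNA to DNA barcode read ratio; higher means stronger binding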
T2 chain: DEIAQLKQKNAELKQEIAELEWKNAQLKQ

4H797-bA = target: T3, 4H797-bA; assay: two-hybrid library CCNG1;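 note: natural log of median RNA to DNA barcode read ratio; higher means stronger binding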
T3 chain: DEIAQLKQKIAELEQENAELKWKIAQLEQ

4H953-bA = target: T4, 4H953-bA; assay: two-hybrid library CCNG1;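 note: natural log of median RNA to DNA barcode read ratio; higher means stronger binding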
T4 chain: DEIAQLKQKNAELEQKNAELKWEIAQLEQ

4H883-bA = target: T5, 4H883-bA; assay: two-hybrid library CCNG1;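 note: natural log of median RNA to DNA barcode read ratio; higher means stronger binding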
T5 chain: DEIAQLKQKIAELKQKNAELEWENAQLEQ

4H908-bA = target: T6, 4H908-bA; assay: two-hybrid library CCNG1;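 note: natural log of median RNA to DNA barcode read ratio; higher means stronger binding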
T6 chain: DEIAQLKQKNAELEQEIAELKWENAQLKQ

4H855-bA = target: T7, 4H855-bA; assay: two-hybrid library CCNG1
T7 chain: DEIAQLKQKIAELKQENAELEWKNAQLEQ

4H967-bA = target: T8, 4H967-bA; assay: two-hybrid library CCNG1
T8 chain: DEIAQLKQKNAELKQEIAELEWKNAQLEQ

APC8401-AA = target: T9, APC8401-AA; assay: two-hybrid library CCmax; settings: mean of both orientations
T9 chain: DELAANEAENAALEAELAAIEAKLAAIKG

APC8516-AA = target: T10, APC8516-AA; assay: two-hybrid library CCmax; settings: mean of both orientations
T10 chain: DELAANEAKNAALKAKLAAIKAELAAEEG

APC7524-AA = target: T11, APC7524-AA; assay: two-hybrid library CCmax; settings: mean of both orientations
T11 chain: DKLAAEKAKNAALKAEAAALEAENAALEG

APC6088-AA = target: T12, APC6088-AA; assay: two-hybrid library CCmax
T12 chain: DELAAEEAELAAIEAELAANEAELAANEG

APC9182-AA = target: T13, APC9182-AA; assay: two-hybrid library CCmax; settings: mean of both orientations
T13 chain: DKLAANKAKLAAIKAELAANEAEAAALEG

APC9141-AA = target: T14, APC9141-AA; assay: two-hybrid library CCmax; settings: mean of both orientations
T14 chain: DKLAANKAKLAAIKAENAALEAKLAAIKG

APC9291-AA = target: T15, APC9291-AA; assay: two-hybrid library CCmax; settings: mean of both orientations
T15 chain: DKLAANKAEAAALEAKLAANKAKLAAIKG

APC9806-AA = target: T16, APC9806-AA; assay: two-hybrid library CCmax; settings: mean of both orientations
T16 chain: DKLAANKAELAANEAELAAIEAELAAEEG

4H816-AA = target: T17, 4H816-AA; assay: two-hybrid library CCmax
T17 chain: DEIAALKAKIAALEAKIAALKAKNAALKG

4H87-AA = target: T18, 4H87-AA; assay: two-hybrid library CCmax; settings: mean of both orientations
T18 chain: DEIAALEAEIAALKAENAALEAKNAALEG

interaction score (4H918-bA): 0.787 | interaction score (4H968-bA): -1.67 | interaction score (4H797-bA): 0.406 | interaction score (4H953-bA): -0.848 | interaction score (4H883-bA): -0.129 | interaction score (4H908-bA): -0.499 | interaction score (4H855-bA): 0.572 | interaction score (4H967-bA): -0.372
Binder: DEIAQLKQKIAELEQENAELKWKIAQLEQ [4H797-bA]

interaction score (APC8401-AA): -1.56 | interaction score (APC8516-AA): -2.19 | interaction score (APC7524-AA): -1.52 | interaction score (APC6088-AA): -1.3 | interaction score (APC9182-AA): -1.84 | interaction score (APC9141-AA): -1.67 | interaction score (APC9291-AA): -1.58 | interaction score (APC9806-AA): -1.36
Binder: DELAAEEAELAAIEAELAANEAELAANEG [APC6088-AA]

interaction score (4H816-AA): 1.02 | interaction score (4H87-AA): 0.567
Binder: DEIAALKAKIAALEAKIAALKAKNAALKG [4H816-AA]
